# B1: TPR t1 (parent)
# chain: GACCAAUCUGCCCUCAGAGCUCGAGAACAUCUUCGGAUGCAGAGGAGGCAGGCUUCGGUGGCGCGAUAGCGCCAACGUCCUCAACCUCCAAUGCAUCCCACCACAUGAUGAUGCCUGAAGAGCCUUGGUUUUUUG
# Variants of: B1
# Assay: polymerase ribozyme fitness, log enrichment relative to wild type (log ratio); higher = more active; in vitro selection for triplet polymerase activity
# Summary of the method: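 For each subunit of a heterodimeric triplet polymerase ribozyme, a mutant library was built by PCR and transcribed, then taken through a single in vitro selection round in triplicate. Selection involved annealing to a biotinylated primer, the partner subunit and triplets, incubation frozen at −7 °C, gel excision of extended constructs, capture on streptavidin beads and RT-PCR. Genotypes were retained after Illumina sequencing of inputs and outputs only with ≥10 input reads and ≥1 read in each output. Fitness is defined as the logarithm of a genotype's enrichment relative to wild-type enrichment, using inverse-variance-weighted averages across replicates, with the logarithm taken to base 2.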
row,Variant,polymerase ribozyme fitness (log ratio)
1,GACCAAUCUGCCAUCAGAGCUCGAGAACAUCUUCGGAUGCAGAGGAGGCAGGCUUCGGUGGCGCGAUAGCGCCAACGUCCUCAACCUCCAAUGCAUCCCACCACAUGAUGAUGCCUGAAUAGCCUUGGUUUUUUG [C13A G120U],-0.457
2,GACCAAUCUGCCCUGAGAGCUCGAGAACAUCUUCGGAUGCGGAGGAGGCAGGCUUCGGUGGCGCGAUAGCGCCAACGUCCUCAACCUCCAAUGCAUCCCACCAUAUGAUGAUGCCUGAAGAGCCUUGGUUUUUUG [C15G A41G C104U],-2.92
3,GACCAAUCAGCCCUCAGAGCUCGAGAACAUCUUCGGAUGCAGAGGAGGCAGGCUUCGGUGGCGCGAUAGCGCAAACGUCCUCAACCUCCAAUGCAUCCCACCAUAUGAUGAUGCCUGAAGAGCCUUGGUGUUUUC [U9A C73A C104U U130G G135C],0.682
4,GACCAAUCUGCCCUCAGAGCUCGAGAACAUCUUCGGAUGCAGAGGAGGCGGGCUUCGGUGGCGCGAUAGCGCCAACGUCCUCCACCUCCAAUGCAUCCCACCACAUGAUGAUGCCUGAAGAGUCUUGGUUUUUUG [A50G A83C C123U],-0.187
5,GACCAAUCUGCCCUCAGAGCUCGAGAACAUCUUCGGAUGCAGAGGAGGCAGGCUUGGGUGGCGCGAUACCGCCAACGUCCUCAACCCCCAAUGCAUCCCACCACAUGAUAAUGCCUGAAGAGCCUUGGUUUUUUG [C56G G69C U87C G110A],-5.42
6,GACCAAUCUGCCCUCAGAGCUCGAGAACAUCUUAGGAUGCAGAGGAGGCAGGCUUCGGUGGCGCGAUAGCGCCAACGUCCUUAACCUCCAAUGCAUGCCACCACAUGAUGAUGCCUGAAGAGCCUUGGUUUUUUG [C34A C82U C97G],-3.48
7,GACCAAUCUGCCCUCAGAGCUCGAGAACAUCUUCGGAUGCAUAGGAUGCAGGCUUCGGUAGCGCGAUAGCGCCAACGUCCUCAACCUCCAAUGCAUCCCACCACAUGAUGAAGUCUCAAGAGCCUUGGUUUUUUG [G42U G47U G60A U112A C114U G117C],-5.02
8,GACCAAUCUGCCCUCAGAGCUCGAGAACAUCUUCGGAUGCAGAGGAGGCAGGCUUCGGUGGCGCGAUAGCGCCAACGACCUCAACCUCCAAUGCGUCCCACCACAUGAUGAUGCCUGAAGAGCCUUGGUUUUUUG [U78A A95G],-0.764
9,GACCAAUCUGCCCUCAGUGCUCGAGAACAUCUUCGGAUGCAGAGGAGGCAGGCUUCGGUGGCGCGAUAGUGCCAACGUCCUCAACCUCCAAUGCAUCCCACCACAUGAUGACGCCUGAAGAGCCUUGGUUUUUUG [A18U C70U U112C],-1.2
10,GCCCAAUCUGCCGUUAGAGCUCGAGAACAUCUUCGGAUGCAGAGGAGGCAGGCUUCGGUGGUGCGAUAGCGCCAACGUCCUCAACCUCCAAUGCAUCCCACCACAUGAUGAUGCCUGAAGAGCCUUGGUUUUUUG [A2C C13G C15U C62U],-4.93
11,GACCAAUCUGCCCUCAGAGCUCGAGAACAUCUUCGGAUGCAGAGGACGCAGGCUUCGGUGGCGCGAUAGUGCCAACGUCCUCAACCUCCAAUACAUCCCACCACAUGAUGAUGCCUGAAGAGCAUUUGUUUUUUU [G47C C70U G93A C124A G127U G135U],-3.66
12,GACCAAUCUGCCCUCAGAGCUCGAGAACAUCUUCGGAUGCAGAGGAGGCAGGCUUCGGUGGCGCGAUAGCGCCAACGUCCUCAACCUCCAAUCCAUCCCCCCACAUGAUGAUGCCUGAAGAGCCUUGGUUUUUUG [G93C A100C],-2.34
13,GACCAAUCUGCCCUCAGAGCUCGAGAACAUCUUCGGAUGCAGAGGAGGCAGGCUUCGAUGGCGCGAUAGCGCCAACGUCCUCAACCUUCAAUGUAUCCCACCACAUGAUGAUGCCUGAAGAGCCUUCGUUUUUUU [G58A C88U C94U G127C G135U],-3.94
14,GACCAAUCUGCCCUCAGAGCUCGAGAAGAUCUUCGGAUGCAGAGGAGGCAGGCUUCGGUGGGGCGAUAGCGCCAACGUCCUCAACCUCCAAUGCAUCCCACCACAUGAUGAUGCCUGAAGAGCCUUGGUUUUUUG [C28G C62G],-4.58
15,GACCAAUCUGCCCUCAGAGCUCGAGAACACCUUCGGAUGUAGAGGAGGCAGGCUUCGGUGGCGCGAUAGCGCCAACGUCCUCAACCUCCAAUGCAUCCCACCACAUGAUGAUGCCUGAACAGCCUUGGUUUUUUG [U30C C40U G120C],-2.45
16,GACCAAUCUGCCCUCAGAGCUCGAGAACAUCUUCGGAUGCAGAGGAGGCAGGCUUCGGUGGCGCGAUAGCGCGAACGUCCUCAACCUCCAAUGCAGCCCACAACAUGAUGAUGCCUGAAGAGCCUUGGUUUUUUG [C73G U96G C102A],-3.86
17,GUCCAAUCUGGCCUCAGAGCUCGAGAACAUCUUCGGAUGCAGAGGAGUCAGGCUUCGGUGGCGCGAUAGCGCCAACGUCCUCAACCUCCAAUUCAUCCCACCACAUGAUGAUGCCUGAACAUCCUUGGUUUUUUG [A2U C11G G48U G93U G120C G122U],-1.28
18,GACCAAUCUGCCCUUAGAGCUCGAGAACAUCUUCGGAUGCAGACGAGGCAGGCUUCGGUGGCGCGAUAGCGCCAACGUCCUCAACCUCCAAUACAUCCCACCACAUGAUGAUGCCUGAAGAGCCUUGGUUUUUUG [C15U G44C G93A],-2.63
19,GACCAAUCUGCCCUCAGAGCUCGAGAACAUCUUCGGAUGCAGAGUAGGCAGGCUUCGGUGGCGCGAUAGCGCCAACGUCCUCAACCUCCAAUGCAUCCCCCCACAUGAUGGUGCCUGAAGGGCCCUGGUUUUUUG [G45U A100C A111G A121G U125C],-1.08
20,GACCAAUCUGCCCUCAGAGCUCGAGAACAUCUUCGGAUGCAGAGGAGGCGGGCUUCGGUGGCGCGAUAGCGCCAACUUCCUCAACGUCCAAUGCAUCCCACCACAUGAUGAUGCCUGAAGAGCCUUGGUUUUUUG [A50G G77U C86G],-1.1
21,GACCAAUCUGCCCUCAGAGCUCGAGAACAUCUUAGGAUGCAGAGGAGGCAGGCUUCGGUGACGCGAUAGCGCCAACGUCCUCAACCUCCAAUGCAUCCCACCACAUGAUGAAGCUUGAAGAGCCUUGGUUUUUUG [C34A G61A U112A C115U],-6.79

row,Variant,polymerase ribozyme fitness (log ratio)
1,GACCAAUCUGUCCUCAGAGCUCGAGAACAUCUUUGGAUGCAGAGGAGGCAGGCUUCGGUGGCGCGAUAGCACCAACGUCCUCAACCUCCAAUGCAUCCCACCACAUGAUGAUGCCUGAAGCGCCUUGGCUUUUUG [C11U C34U G71A A121C U129C],-6.13
2,GACCAAUCUGCCCUCAGAGCUCGAGUACAUCUUCGGAUGCAGAGGAGGCAGGCUUCGGUGCCGCGAUAGCGCCAACGUCCUCAACCUCCAAUGCAUCCCACCACAUGAUGAUGCCUGAAGAGCCUUGGUUUUUUG [A26U G61C],-3.63
3,GACCAAUCUGCCCUCAGAGCUCGAGAACAUCUUCGGUUGCAGAGGAGGCAGGCUUCGGUAGCGCGAUAGCGCCAACGUCCUCAACCUCCAAUGCAUCCCAUCACAUGAUGAUGCCUGAAGAGCCUUGGUUUUUUG [A37U G60A C101U],-0.477
4,GACCAAUCUGCCCUCAGAGCUCGAGAACAUCUUCGGAUGGAGAGGAGGCAGGCUUCGGUGGCGCGAUAGCGCCAACGUCCUCAACCUCCAAUGCAUCCCACUACAUGAUGAUGCCGGAAGAGCUUUGGUUUUUUG [C40G C102U U116G C124U],-4.94
5,GACCAAUCUGCCCUCAGAGCUCGAGAACAUCUUCAGAUGCAGAGGAGGCAGGGUUCGGUGGUGCGAUAGCGCCAACCUCCUCACCCUCCAAUGCAUCCCACCACAUGAUGAUGCCUGAAGAGCGUUGGUUUUUUC [G35A C53G C62U G77C A84C C124G G135C],-3.97
6,GACCAAUCUGUCCUCAGAGCUCGAGAACAUCUUCGGAUGCAGAGGAGGCUGGCUUCGGUGGCGCGAUAGUGCCAACGUCCUCAACCUCCAAUGCAUCCCACCACAUGAUGAUACCUGAAGAGCCUUGGUUUUUUG [C11U A50U C70U G113A],-2.63
7,GACCAAUCUGCUCUCAGAGCUCGAGAACAUCUUCGGAUGCAGAGGAGGCAGGCUUCGGUUGCGCGAUAGCGCCAACGUCCUCAACCUCCAAUGCAUCCCACCACAUGAUGAUGCCUGAAGAGCCUUGGUUUUUUG [C12U G60U],0.415
8,GACCAAUCUGCCCUCAGAGCUCGAGAACAUCUUCGGAUGCAGAGGAGGCAGGCUUCGGUGGCGCGAUAGCGCCAACGUCCUCAACCUCCAAUGCAUCCCAUCACAUGAUGAUGCCUCAAGAGCCUUGGUUUUUUG [C101U G117C],-3.39
9,GACCAAUCUGCCCUCAGAGCUCGAGAACAUCUUCGCAUGCAGAGGAGGCAGCCUUCGGUGGCGCGAUAGAGCCAACGUCCUCAACCUCCAAUGCAUCCCACCACAAGAUGAUGCCUGAAGAGCCUUGGUUUUUUG [G36C G52C C70A U106A],-2.71
10,GACCAAUCUGCCCUCAGAGCUCGAGAACAUCUUCGGAUGCAGAGGAGGCAGGCUUCGGUGGCGCGAUAGCGCCAACGUCCUCAACCUCCAAUGCAUCCCACCACAUGAUGAUGCCUGAAGAGCCUUGCUCUUUUG [G128C U130C],-1.33
11,GACCAAUCUGCCCUCAGAGCUCGAGAACAUCUUCGGAUGCAGAGGAGGCAGGCUUCGGUGGCGCGAUAGGGCCAACGUCCUCAACCUCCAAUGAAUCCCACCACAUGAUGAUGCCUGAAGAGCCUUGGUUUUUUG [C70G C94A],-3.62
12,GACCAAUCUGCCCUCAGAGCUCGAGAUCAUCUUCGGAUGCAGAGGUGGCAGGCUUCGGUGGCGCGAUAGCGCCAACGUCCUCAACCUCCAAUGCAUCCCACCACAUGAUGAUGCCUGAAGAGCCUUGGUUUUUUG [A27U A46U],-4.77
13,GACCAAUCUGCCCUCAGAGCUCGAGAACAUCUUCGGUUGCAGAGGAGGCAGGCUUCGGUGGCGCGAUAGCGCCAACGUCCUCAACCUCCAAUGCAGCCCACCACAUGAUGAUGCCUGAAGAGCCUUGGUUUUUUG [A37U U96G],-0.312
14,GACCAAUCUGCCCUCAGAGCUCGAGAACAUCUUCGGAUGCAGAGUAGGCAGGCUUAGGGGGCGCGAUAGCGCCAACGUCCUCAACCUCCAAUGCAUCCCAGCACAUGAUGAUGCCUGAAAAGCCUUGAUUUUUUA [G45U C56A U59G C101G G120A G128A G135A],-3.75
15,GACCAAUCUGCCCUCAGAGCUCGAGAACAUCUUCGGAUGCAGAGGAGGCAGGCUUCGGUGGCGCGAUAGCGCCAACGUCCUCAACCUCCAAUGCAUCCCACCACAUGAUGAUGCCUGAAGAGCCUUGGUUUUGUC [U133G G135C],0.463
16,GACCAAUCUGCCCUCAGAGCUCGAGAACAUCUUCGGAUGCAGAGGAGGCAGGCUUCGGUGGCGCGAUAGCACCAACGUCCUCAACAUCCAAUGCAUCCCACCACAUGAUGCUCCCUGAAGAGCCUUGGUUUUUUG [G71A C86A A111C G113C],-5.65
17,GACCAAUUUGCCCGCAGAGCUCGAGAACAUCUUCGGAUGCAGAGGAGGCAGGCUUCGGUAGCGCGAUAGCGCUAACGUCCUCAACCUCCAAUGCAUCCCACCACAUGAUGAUGCCUGAAGAGCCUUGGUUUUUUG [C8U U14G G60A C73U],-0.213
18,GACCAAUCUGCCUUCAGAGCUCGAGAGCAUCUUCGGAUGCAGAGGAGGCAGGCUUCGGUGGCGCGAUAGCGCCAACGUCCUCAACCUCCAAUGCAUCCCACCACAUGAUGAUGCCUGAAGAGCCUUGGUUUUUUG [C13U A27G],-2.05
19,GACCAAGCUGCCCUCAGAGCUCGAGAACAUCUUCGGAUGCAGAGGAGGCAGGCUUAGGUGGCGCGAUAGCGCCAACGUCCUCAACCUCCAAUGCAUCCCACCACAUGAUGAUGCCUGAAGAGCCUUGGUUUUUUG [U7G C56A],0.0403
20,GACCAAUCUGCCCUCAGAGCUCGAGAACAUCUUCGGAGGCAGAGGAGGCAGGCUGCGGUGGCGCGAUAGCGCCAACGUCCUCAACCUCCAAUGCAUCCCACCACAUGAUGAUGCCUGAAGCGCCUUGGUUUUUUG [U38G U55G A121C],1.28
21,GACCAAUCUGCCCUCAGAGCUCGAGAACAUCUUCGGAUGCAGAGGAGGCAGGCUUCGGUGGCGCGAUAGGGCCAACGUCCUCAACCUCCAAUGCAUCCCACCACAUGAUGAUGCCUGAAGAGCGUUGGUUUUUUG [C70G C124G],-0.578
